This note sets out measurements from the supplement of paper PMC10567573.

The nature of this data set: protein stability index of a GFP-peptide fusion (GPS, HEK-293T) (PSI 1-6); higher = more stable.
Where [1] appears, read: treatment: DMSO, c terminus: a fixed tail appended.
The mark [2] stands for this setting: treatment: MLN4924 1 uM, 8 h, c terminus: a fixed tail appended.

± gives the standard deviation.
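Further: 24-mer peptide tiles fused after GFP, lentivirally expressed, FACS-sorted into six equal bins by GFP/DsRed ratio, decoded by Illumina sequencing, PSI is the read-weighted mean bin number.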

For KPVDMWACGVILYILLVGYPPFWD [CAMK2D], the protein stability index under setting [1] was found to be 3.46 ± 0.29 and the protein stability index under setting [2] came out at 3.36 ± 0.41. HSEVVEELVSADVIDLFDEQGLSA [RIPK4] gave a protein stability index under setting [1] of 5.02 ± 0.52 and a protein stability index under setting [2] of 4.98 ± 0.52. The matching figures for TYAVRKLDNTKFRSHEGETAYIRV [SRSF1]: 2.46 ± 0.39 and 2.38 ± 0.3. The matching figures for EDSAQNCFALIPKAPKKDVIKMLV [EFHC1]: 2.69 ± 0.4 and 2.97 ± 0.26. The like results for SKLSLLLNDISRKSEGLSGRVLRK [TRIP13] were, in that order, 2.82 ± 0.28 and 2.82 ± 0.31.

On to WTTEQQQRFHEICSNLVKTRRRAV [ARL6IP1], for which the protein stability index runs as follows: under setting [1], 2.8 ± 0.2; under setting [2], 3.07 ± 0.41. The matching figures for KGCKVTLPEKPVKLASHTRDTTGV [FBF1]: 4.21 ± 0.24 and 4.58 ± 0.17.

Consider PSSSSIHNGDMEKILLDAQHESGQ [BNIP3L], for which the protein stability index worked out at 5.12 ± 0.14 under setting [1] and 5.27 ± 0.096 under setting [2]. The like results for TQEQARKEFQQVFIPECNDDGTYS [SMOC2] were, in that order, 4.94 ± 0.27 and 4.84 ± 0.18. As for ELSEAAEAQHGPHSAVARISRAQY [STX11], the protein stability index is 4.53 ± 0.24 under setting [1] and 4.63 ± 0.15 under setting [2]. The matching figures for PGFGCKAVRCASGRCTVRDFIHRH [SDE2]: 2.08 ± 0.43 and 2.14 ± 0.46. On to KKHGTQNKRAALQALKRKKRFEKQ [CHMP4C], for which the protein stability index runs as follows: under setting [1], 4.52 ± 0.3; under setting [2], 4.52 ± 0.19. As to DRKLHSRPRKLYKHSSTSSRIAKG [BTBD10], the protein stability index turned out to be 3.81 ± 0.15 under setting [1] and 3.79 ± 0.25 under setting [2].

Take SNVRGSLNVNLNSVVLRRARGGAV [DUSP5]: the protein stability index worked out at 3.74 ± 0.24 under setting [1] and 4.1 ± 0.29 under setting [2].

Take STYRKRTPVMEGYVEVKEGKTWKQ [LOXL2]: the protein stability index under setting [2] came out at 3.92 ± 0.2. Regarding LNIVERYDPKENKWTRVASMSTRR [KLHL20], the protein stability index is, setting by setting: under setting [1], 3.31 ± 0.084; under setting [2], 3.39 ± 0.23. The matching figures for FNSILPGVLILFLTFFAFLHCWLN [SOAT1]: 2.22 ± 0.63 and 2.29 ± 0.36. The like results for AVLRRIQLQPTSIEKEVFPIMAKE [GMPPB] were, in that order, 2.52 ± 0.33 and 2.57 ± 0.36.

VQFVFDAVTDVIIKNNLKDCGLF [GNAI1]: the protein stability index is, setting by setting: (treatment: DMSO, c terminus: native) 2.68 ± 0.81; (treatment: MLN4924 1 uM, 8 h, c terminus: native) 2.61 ± 0.73. In the case of PVFLHSQMLWELVLLGEPLVVMAP [DENND6A], the protein stability index by setting is: under setting [1], 2.81 ± 0.63; under setting [2], 2.98 ± 0.69.

As to SVKSKIGELEDESLNRACHQQNKI [CEP70], the protein stability index under setting [1] amounted to 4.63 ± 0.41 and the protein stability index under setting [2] worked out at 4.7 ± 0.25. The matching figures for ITIEPGTSYRLQGLKPNSLYYFRL [PTPRD]: 2.63 ± 0.12 and 2.61 ± 0.43. The matching figures for WRNIILMSLLHLGALYGITLIPTC [SCD]: 2.83 ± 0.19 and 2.9 ± 0.42. The like results for ETYKMEFMYSGVENKQVVIIHHMR [INTS4] were, in that order, 2.72 ± 0.56 and 2.46 ± 0.47. For SLIEDLQRELEIPEQQVDMHDMLL [ZNF449], the protein stability index reads like this: under setting [1], 3.56 ± 0.35; under setting [2], 3.51 ± 0.34.

Take VLGIQVKCFHEIITIGYRVYHSYD [CDS1]: the protein stability index runs as follows: under setting [1], 3.25 ± 0.25; under setting [2], 3.04 ± 0.17. The like results for SGTTLISVIVLDINDNAPTFQSSV [PCDHGC5] were, in that order, 2.96 ± 0.28 and 2.64 ± 0.63.

For QSMSQTRELLLDGGYLQRTTYDRR [RSPH3], the protein stability index is, setting by setting: under setting [1], 3.85 ± 0.13; under setting [2], 3.77 ± 0.052. The like results for QAPGEENLLGEAAGGQDMADSMLM [HDAC6] were, in that order, 5.36 ± 0.16 and 5.14 ± 0.36. Regarding PAEDPDDYDDGFSMKHTATARFQR [SMARCE1], the protein stability index runs as follows: under setting [1], 4.81 ± 0.13; under setting [2], 4.89 ± 0.17. With AEEYRLKEHYLTFEKSRYETYIHL [PSD2], the protein stability index came out at 1.93 ± 0.2 under setting [1] and 2.01 ± 0.46 under setting [2]. The like results for IFYDLVRQINRKTPVPGKARKKSS [RAP1B] were, in that order, 2.47 ± 0.47 and 2.37 ± 0.4.

As for AAFQTILTEIYRIVSQKQMSDRRE [RAB11A], the protein stability index came to 2.77 ± 0.42 under setting [1] and 2.52 ± 0.36 under setting [2].

Consider AKELTAEKRLEGQEEEEDNRDSSM [CHGA], for which the protein stability index stood at 5.67 ± 0.22 under setting [1] and 5.61 ± 0.31 under setting [2]. The matching figures for LVKKLQDSVLERWVNDPQRMDKRT [GOLPH3L]: 2.69 ± 0.14 and 2.93 ± 0.29.

For the sequence LQSTYATPVDMWSVGCIFAEMFRR [CDK4], the protein stability index by setting is: under setting [1], 2.32 ± 0.42; under setting [2], 2.37 ± 0.41. Turning to GHLRGPEIRDWRGPQLEGEKDWGL [ZSWIM9], the protein stability index reads like this: under setting [1], 3.66 ± 0.39; under setting [2], 3.52 ± 0.47. The matching figures for YWDGSGHRRTVKMRKGNTMQQFLQ [FAM50A]: 2.74 ± 0.12 and 2.72 ± 0.24. The like results for VCYFTNWAQYRQGEARFLPKDLDP [CHIT1] were, in that order, 2.32 ± 0.14 and 2.34 ± 0.17. The like results for LTNNVDLDNTKKKMEIYQKENKDV [MNAT1] were, in that order, 5.34 ± 0.3 and 5.31 ± 0.19. IGPIHLNEIQCTGNEKSIIDCKFN [LOXL2] came in with a protein stability index under setting [1] of 3.63 ± 0.15 and a protein stability index under setting [2] of 3.67 ± 0.23. In the case of LTALLEKYTPSNKHGFSWAVPKFM [DLC1], the protein stability index by setting is: under setting [1], 2.6 ± 0.57; under setting [2], 2.09 ± 0.2. On to EQDRIPEVHVPPSSAVSGVKEWFG [MIA2], for which the protein stability index under setting [1] came to 4.35 ± 0.099 and the protein stability index under setting [2] amounted to 4.46 ± 0.35.

EHGDQLLSIRCQHQEQVEDLTASH [MTUS2]: the protein stability index was found to be 5.25 ± 0.23 under setting [1] and 5.09 ± 0.22 under setting [2]. The matching figures for QELANIDPTWIESPKTNGHIENGP [SRPK2]: 4.92 ± 0.32 and 4.63 ± 0.19. The matching figures for FEGEGDYEEGMYADWWQEPDAKGD [P3H4]: 5.31 ± 0.12 and 5.35 ± 0.16.

In the case of YQLCHALRFLHENQLTHTDLKPEN [CLK3], the protein stability index was 4.62 ± 0.23 under setting [1] and 4.76 ± 0.37 under setting [2]. The like results for SRSTLECAYRTHLVAGIGFYQHLL [SMG5] were, in that order, 2.9 ± 0.35 and 2.83 ± 0.57. The matching figures for IHERTHERERLYPFSECGEAVSDS [ZNF263]: 4.81 ± 0.41 and 4.88 ± 0.22. The matching figures for QVIHPQEFRRWRDTGVAFELRDSS [DNAAF3]: 3.29 ± 0.36 and 3.31 ± 0.32.

Regarding AAVKENQMTPTNLAVCLAPSLFHL [DLC1], the protein stability index by setting is: under setting [1], 2.37 ± 0.06; under setting [2], 2.61 ± 0.33.

Turning to KDEPSKYNQQQALIDQRYFQVLCS [CEP70], the protein stability index runs as follows: under setting [1], 3 ± 0.063; under setting [2], 3.13 ± 0.24. The like results for GSEENGRYFSLSLMSGALAVNQKI [PCDHGC5] were, in that order, 2.49 ± 0.2 and 2.6 ± 0.23.
